According to article PMC3591345, “A Novel Single-Strand Specific 3′–5′ Exonuclease Found in the Hyperthermophilic Archaeon, Pyrococcus furiosus”:

Experiments:
[1] = target: PfuExo I (recombinant protein encoded by PF2046) (Pyrococcus furiosus) (UniProt Q8TZE9); test: SEC; analytical gel filtration, SMART system, Superdex 200 3.2/30; 20 µM PfuExo I; 50 mM Tris-HCl pH 8.0, 0.5 mM DTT, 0.1 mM EDTA, 10% glycerol, 0.15 M NaCl; mass estimated against marker proteins
[2] = target: T1, PfuExo I (Pyrococcus furiosus, UniProt Q8TZE9 1-229); test: EMSA; no Mg2+, 0.1 mM EDTA; 1-1000 nM protein; 0.1% glutaraldehyde fixation; one shifted band; 20 mM triethanolamine (pH not stated), 50 mM NaCl, 0.1 mg/ml BSA, 0.1 mM EDTA, 2.5 nM DNA, 20 min at 37 C, then 0.1% glutaraldehyde; 4.5% native PAGE; details: protein: recombinant, chain copies: 3, label: 32P (5')
T1 sequence: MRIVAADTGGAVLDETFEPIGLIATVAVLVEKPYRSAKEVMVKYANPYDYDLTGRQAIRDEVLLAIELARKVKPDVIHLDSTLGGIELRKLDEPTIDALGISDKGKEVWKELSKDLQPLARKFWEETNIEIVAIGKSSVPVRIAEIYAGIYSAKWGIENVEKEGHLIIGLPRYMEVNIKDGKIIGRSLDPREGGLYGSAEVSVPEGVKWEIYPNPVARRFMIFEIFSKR

PfuExo I (recombinant protein encoded by PF2046) (from UniProt Q8TZE9 1-229) (enzyme)
stoichiometry N [1]: 3

B1: 5'-overhang DNA d49F/d27 (dsDNA)
DNA 1: AGCTACCATGCCTGCACGAATTAAGCAATTCGTAATCATGGTCATAGCT
DNA 2: AGCTATGACCATGATTACGAATTGCTT
binding result ([2]; 5' overhang 22 nt): binds

B2: 3'-overhang DNA d49F/d22 (dsDNA)
DNA 1: B1 DNA 1
DNA 2: AATTCGTGCAGGCATGGTAGCT
binding result ([2]; 3' overhang 27 nt): binds
